The chains are these.
B1: Selection peptide PIQWNAPQPS (peptide)
peptide: PIQWNAPQPS
notes: Synthetic peptide from Genscript
B2: FN-ANA monoclonal antibody (mAb raised against the FN-ANA neoepitope sequence …) (antibody, mouse IgG1, kappa, V domains shown)
VH: QVQLQQSGAELVRPGASVKLSCKALGYTLTDYEMHWVKQTPVHGLEWIGAIHPGRGAAAYNQKFKDKATLTADKSSSTAYMELSSLTSEDSAVYYCTRSEEYGNYEDAMDYWGQGTSVTVSS
VL: DVVMTQTPLSLPVSLGDQASISCRSSQSLVHSNGNTYLHWFLQKPGQSPKLLIYKVSNRFSGVPDRFSGSGSGTDFTLKISRVEAEDLGVYFCSQSTHVPYTFGGGTKLEIKR
modifications: antibody labeled with HRP (site not stated)
notes: Mouse IgG1/kappa from a hybridoma, purified and HRP-labelled for the assay; also called FN-ANA mAb; FN-ANA antibody

Where no end group is shown, it is not given here. The star is where a group is joined. Biotin = O=C1N[C@H]2[C@H](CS[C@H]2CCCCC(=O)*)N1

The target of assay [1] is B2. The assay is described as follows: competitive chemiluminescent ELISA, ten independent runs: selection peptide competes with plate-bound coating peptide …-K-biotin for HRP-labelled mAb; 20 h at 4 C. The protocol:
The final FN-ANA assay parameters were determined empirically by several optimizing experiments where various reagents, concentrations, incubation time and temperature were investigated in addition to testing reactivity to selection and deselection peptides (Table 1) and human sera. The final FN-ANA competitive ELISA procedure was conducted with chemiluminescence detection and determined as follows: 100 μL of 3 ng/ml coating peptide ([…]-K-biotin (SEQ ID NO: 5)) in coating buffer (50 mM tris-buffered saline (TBS) with 1% (w/v) bovine serum albumin, 0.1% (w/v) Tween-20, and 0.36% (v/v) Bronidox (BTB), 4 g/L NaCl, 0.20 g/L KCl, pH 8.0) was added to each well in a 96-well streptavidin-coated microtiter white plate (cat. No. 655995, Greiner Bio-one, Taufkirchen, Germany), whereafter it was incubated for 30 minutes at 20° C. with 300 RPM orbital shaking. After incubation, the plate was emptied and washed 5 times in washing buffer (consisting of 25 mM Tris, 3.0 g/L NaCl, 0.1% (w/v) Tween-20, pH 7.2). […] Following a washing step, 100 µL/well of chemiluminescence substrate was added, and the plate was incubated for a total of 3 minutes in darkness with 1 minute of 300 RPM orbital shaking before detection with luminescence on a SpectraMax i3x microplate reader (Molecular Devices, Sunnyvale CA, USA) at 1 second integration time at all wavelengths as microplate reader settings. […]

The target in assay [2] is T1, Nonsense peptide LHDSNPYPRR
T1 construct: also called nonsense selection peptide; deselection peptide
T1 peptide: LHDSNPYPRR
The assay is described as follows: competitive ELISA, colorimetric detection (OD 450 nm), two-fold diluted peptides. The protocol:
(§1) No. 655995, Greiner Bio-one, Taufkirchen, Germany), whereafter it was incubated for 30 minutes at 20° C. with 300 RPM orbital shaking. After incubation, the plate was emptied and washed 5 times in washing buffer (consisting of 25 mM Tris, 3.0 g/L NaCl, 0.1% (w/v) Tween-20, pH 7.2). A 10-point calibration curve with 2-fold dilution was prepared from a start concentration of 200 ng/ml selection peptide ([…] (SEQ ID NO: 1)) in incubation buffer (50 mM TBS-BTB, 4.0 g/L NaCl, 0.20 g/L KCl, 5% Liquid II (cat. No. 11941836001, Roche), pH 8.0). 20 μL/well of standards, assay controls, and serum samples were added to appropriate wells in double determinations followed by the addition of 100 μL/well of 6 ng/ml of HRP-labelled mAb in incubation buffer, whereafter plates were incubated at 4° C. for 20 hours with 300 RPM orbital shaking. The following day, chemiluminescence substrate (cat. No. 11582950001, Roche Diagnostics) was prepared according to manufacturer's instructions and mixed by rotation in the dark for 20 minutes at room temperature prior to plate analysis. Following a washing step, 100 µL/well of chemiluminescence substrate was added, and the plate was incubated for a total of 3 minutes in darkness with 1 minute of 300 RPM orbital shaking before detection with luminescence on a SpectraMax i3x microplate reader (Molecular Devices, Sunnyvale CA, USA) at 1 second integration time at all wavelengths as microplate reader settings. […]
(§2) Antibody specificity was evaluated using the synthetic peptides and determined as a percentage of signal inhibition of two-fold diluted selection and deselection peptides (elongated, truncated, and nonsense) in addition to a non-sense coating (peptide details are listed in Table 1) using a colorimetric detection method with 96-well streptavidin-coated microtiter plate (cat. No. 11940279, Roche Diagnostics, Hvidovre, Denmark) and using the above procedure with the following exceptions: Instead of adding chemiluminescent substrate, the colorimetric substrate 3,3′,5,5′-tetramethylbenzidine One (cat. […]

Assay [3] deals with T2, Elongated peptide HPIQWNAPQPS
T2 construct: also called deselection peptide
T2 peptide: HPIQWNAPQPS
The description is as above. Here is the method:
as §1, §2

Assay [4] concerns the target T3, Truncated peptide IQWNAPQPS
T3 construct: also called deselection peptide
T3 peptide: IQWNAPQPS
The description is as above. Here is the method: as §1, §2

Assay [5] addresses T4, Nonsense coating peptide LHDSNPYPRR-K-Biotin.
T4 peptide: LHDSNPYPRRK(Biotin)
The assay is described as follows: ELISA with the nonsense coating peptide on a streptavidin plate, colorimetric detection (OD 450 nm).

Assay [6] has as its target B1. The assay is described as follows: competitive ELISA, colorimetric detection.
Assay [7] addresses T5, Coating peptide PIQWNAPQPS-K-Biotin (human).
T5 construct: also called biotin-labelled peptide
T5 peptide: PIQWNAPQPSK(Biotin)
In words: competitive ELISA, colorimetric detection.

For B1, the IC50 in assay [1] turned out to be 8.86 ng/mL.

Regarding B2, the binding result in assay [2] was “no binding”; in assay [3], “no binding”; in assay [4] it was “no binding”; in assay [5] it was “no binding”; in assay [6], “binds”; in assay [7], “binds”.

Source of the values: patent US20250076314A1 (NORDIC BIOSCIENCE A S, published 2025).
